Assay results: US20040151724A1 (published 2004)

Molecular target: T1, MUC1 (UniProt P15941 24-1255, limits assumed)
T1 construct: whole, on cells; also called B16MUC1; C57MUC1
Assay: flow cytometry of Fab on C57MUC1 cells (murine + MUC1)

T1 sequence (P15941 24-1255 limits assumed): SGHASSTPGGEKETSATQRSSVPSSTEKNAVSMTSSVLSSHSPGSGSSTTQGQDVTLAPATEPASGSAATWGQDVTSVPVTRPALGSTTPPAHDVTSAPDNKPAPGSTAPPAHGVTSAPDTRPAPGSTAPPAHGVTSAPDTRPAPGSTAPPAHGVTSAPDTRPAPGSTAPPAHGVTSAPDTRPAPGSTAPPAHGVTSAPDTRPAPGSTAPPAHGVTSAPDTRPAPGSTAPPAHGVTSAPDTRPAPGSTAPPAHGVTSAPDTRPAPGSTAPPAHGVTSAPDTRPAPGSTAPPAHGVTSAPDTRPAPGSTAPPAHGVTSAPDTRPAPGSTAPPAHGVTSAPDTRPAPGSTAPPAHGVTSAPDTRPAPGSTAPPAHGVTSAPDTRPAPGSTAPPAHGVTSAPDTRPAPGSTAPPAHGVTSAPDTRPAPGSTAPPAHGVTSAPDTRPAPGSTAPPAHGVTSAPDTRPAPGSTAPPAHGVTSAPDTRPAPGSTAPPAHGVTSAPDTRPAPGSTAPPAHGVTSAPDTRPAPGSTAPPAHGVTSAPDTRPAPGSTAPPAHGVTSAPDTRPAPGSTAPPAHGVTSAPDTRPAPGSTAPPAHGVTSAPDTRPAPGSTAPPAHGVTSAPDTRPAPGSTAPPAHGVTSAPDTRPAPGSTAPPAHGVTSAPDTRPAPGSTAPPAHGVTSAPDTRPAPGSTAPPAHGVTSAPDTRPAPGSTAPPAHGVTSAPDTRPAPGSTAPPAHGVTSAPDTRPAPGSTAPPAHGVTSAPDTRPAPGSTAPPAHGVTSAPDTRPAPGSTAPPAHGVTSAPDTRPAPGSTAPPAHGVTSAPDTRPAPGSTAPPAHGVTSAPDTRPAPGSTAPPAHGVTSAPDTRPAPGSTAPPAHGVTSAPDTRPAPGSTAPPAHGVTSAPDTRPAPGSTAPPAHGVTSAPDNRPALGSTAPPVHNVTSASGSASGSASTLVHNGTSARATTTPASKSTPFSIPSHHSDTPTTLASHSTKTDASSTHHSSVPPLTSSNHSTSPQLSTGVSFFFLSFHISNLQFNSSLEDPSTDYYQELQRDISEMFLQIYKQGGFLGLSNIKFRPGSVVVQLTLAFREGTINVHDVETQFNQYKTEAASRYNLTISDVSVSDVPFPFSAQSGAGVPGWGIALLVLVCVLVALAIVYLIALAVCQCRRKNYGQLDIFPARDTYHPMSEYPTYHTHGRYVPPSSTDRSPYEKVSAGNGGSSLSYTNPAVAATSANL

B1: Fab 14.6.20 (Fab, V domains shown)
VH: EVQLVQSGGGLVQPGGSLRLSCTASGFIFNNYAMSWVRQAPGKGLEWVSGISTGGSSTYHADSVKGRFTISRDNFKKTLWLQMNSLTPEDAAVYYCARHANFWNGYLEKGAIDYWGQGTLVTVSS
VL: ELQMTQSPSTLSASVGDRVTITCRASHSVSGWLAWYQQKPGKAPKLLSYEPSSLESGVPSRFSGSGSGTEFTLTISSLQPEDFATYYCQESYRITSLTFGGGTKVETRR
notes: also called Fab clone 14.6.20
- binding result: no binding
